Experiments:
[1] = target: recombinant MBP (Maltose Binding Protein) alone, negative control (UniProt P0AEX9 27-392 = MBP); test: pulldown on amylose-agarose resin, autoradiography
Protocol: (§1) FIG. 8. […] The CAD containing C-terminal 100 amino acids of HIF-2a was in vitro translated in the presence of ³⁵S-methionine. […] The resin mixtures were washed before the pulled down proteins were analysed by SDS-PAGE and autoradiography. Lanes 1-3 show 10% of the input translation mixtures.
(§2) Samples were centrifuged 1500 rpm, 30 secs (room temp) to pellet resin, and the supernatant discarded. Resin was then washed three times with 1 ml of the binding buffer. […] After centrifuging 30 secs/1500 rpm, 30 ul of the supernatant was separated by electrophoresis through a 12.5 % polyacrylamide gel. The gel was dried and exposed to autoradiography.

[2] = target: T1, MBP (maltose binding protein) fused to wild type HIF Asparagine Hydroxylase (HNH) (UniProt Q9NWT6 1-349); test: pulldown on amylose-agarose resin, autoradiography
T1 construct: also called MBP-HNH; MBP/FIH-1
Protocol: as §1, §2

T1 sequence (Q9NWT6 whole entry, the tested form may be a part): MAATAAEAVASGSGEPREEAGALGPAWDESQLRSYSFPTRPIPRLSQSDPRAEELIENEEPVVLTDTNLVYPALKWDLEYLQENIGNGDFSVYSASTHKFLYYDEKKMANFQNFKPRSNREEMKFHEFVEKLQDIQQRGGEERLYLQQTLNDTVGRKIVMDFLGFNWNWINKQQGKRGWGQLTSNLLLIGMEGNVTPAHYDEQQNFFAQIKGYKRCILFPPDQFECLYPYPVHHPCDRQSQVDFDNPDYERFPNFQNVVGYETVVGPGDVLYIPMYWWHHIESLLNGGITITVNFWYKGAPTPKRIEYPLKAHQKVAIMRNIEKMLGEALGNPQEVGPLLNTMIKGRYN

Row | Binder | binding result [1] | binding result [2]
1 | C-terminal 100 amino acids of mouse HIF-2a (775-874), wild type, with N-terminal thioredoxin/6-histidine tag (other, in vitro translated in the presence of 35S-methionine (radiolabelled Met), range 775-874; also called HIF-2a CAD; wild type CAD; not shown: N-terminal thioredoxin/6-histidine tag supplied by the pET32 vector) RGLGQPLRHLPPPQPPSTRSSGENAKTGFPPQCYASQFQDYGPPGAQKVSGVASRLLGPSFEPYLLPELTRYDCEVNVPVPGSSTLLQGRDLLRALDQAT | no binding | –
2 | C-terminal 100 amino acids of mouse HIF-2a (775-874), mutant N851A, with N-terminal thioredoxin/6-histidine tag (other, in vitro translated in the presence of 35S-methionine (radiolabelled Met), range 775-874; also called N851A point mutant CAD; not shown: N-terminal thioredoxin/6-histidine tag supplied by the pET32 vector) RGLGQPLRHLPPPQPPSTRSSGENAKTGFPPQCYASQFQDYGPPGAQKVSGVASRLLGPSFEPYLLPELTRYDCEVAVPVPGSSTLLQGRDLLRALDQAT | no binding | –
3 | C-terminal 100 amino acids of mouse HIF-2a (775-874), mutant RLL to AAA, with N-terminal thioredoxin/6-histidine tag (other, UniProt P97481 775-874, looked up, in vitro translated in the presence of 35S-methionine (radiolabelled Met), range 775-874; also called RLL to AAA triple mutant CAD; not shown: N-terminal thioredoxin/6-histidine tag supplied by the pET32 vector) RGLGQPLRHLPPPQPPSTRSSGENAKTGFPPQCYASQFQDYGPPGAQKVSGVASAAAGPSFEPYLLPELTRYDCEVNVPVPGSSTLLQGRDLLRALDQAT | no binding | no binding

Source: patent US20050064533A1 (ADELAIDE RESEARCH AND INNOVATION, published 2005)
